Assay [1] addresses T1, His-tagged human CTLA-4 (CT4-H5229; Acro Biosystems) (human, UniProt P16410 36-161).
T1 construct: bought soluble protein; also called soluble human CTLA-4; recombinant human CTLA-4; not shown: His tag
Description: SPR (Carterra), soluble human CTLA-4.

Assay [2] has as its target T1, His-tagged human CTLA-4 (CT4-H5229; …). The assay can be described thus: SPR (Carterra). How it is done:
(§1) Then, goat anti-Human IgG Fc (Southern Biotech 2047-01) was coupled for 10 minutes at […] in 10 mM Sodim Acetate pH 4.5 (Carterra Inc.). The surface was then deactivated with 1 M ethanolamine pH 8.5 (Carterra Inc.). Running buffer used for the lawn immobilization was HBS-EPC (10 mM HEPES, 150 mM NaCl, 3 mM EDTA, 0.05% Tween 20, pH 7.4; Teknova).
(§2) The sensor chip was then transferred to a continuous flow microspotter (CFM; Carterra Inc.) for array capturing. The mAb supernatants were diluted 50-fold ([…] final concentration) into HBS-EPC with 1 mg/mL BSA. The samples were each captured twice with 15-minute and 4-minute capture steps on the first and second prints, respectively, to create multiple densities, using a […] flow rate. The running buffer in the CFM was also HBS-EPC.
(§3) Next, the sensor chip was loaded onto an SPR reader (MX-96 system; Ibis Technologies) for the kinetic analysis. CTLA-4 was injected at five increasing concentrations in a four-fold dilution series with concentrations of 1.95, 7.8, 31.25, 125, and 500 nM in running buffer (HBS-EPC with 1.0 mg/mL BSA). CTLA-4 injections were 5 minutes with a 15-minute dissociation at […] in a non-regenerative kinetic series. An injection of the goat anti-Human IgG Fc capture antibody at […] was injected at the end of the series to verify the capture level of each mAb. Binding data was double referenced by subtracting an interspot surface and a blank injection and analyzed for ka (on-rate), kd (off-rate), and KD (affinity) using the Kinetic Interaction Tool software (Carterra Inc.).

The target of assay [3] is T2, His-tagged cynomolgus CTLA-4 (CT4-C5227; Acro Biosystems) (cynomolgus, UniProt G7PL88 36-161).
T2 construct: also called soluble cynomolgus CTLA-4; cyno CTLA-4
T2 sequence (G7PL88 entry or part of it limits assumed, form in doubt): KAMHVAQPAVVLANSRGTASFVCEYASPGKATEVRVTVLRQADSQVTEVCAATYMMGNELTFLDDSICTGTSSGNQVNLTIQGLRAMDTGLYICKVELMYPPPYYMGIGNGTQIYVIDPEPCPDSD
Description: BLI (Octet), single antigen concentration. How it is done:
(§4) Table 23. In vitro characterization of scFvs reformatted as full-length antibodies. kon, koff, and KD of the indicated CTLA-4 mAbs for soluble human CTLA-4 was determined by SPR (Carterra). Geometric MFI of the indicated CTLA-4 mAbs bound to CTLA-4⁺ or CD27⁺ CHO cells as detected by a secondary human IgG antibody and flow cytometry. Affinity (KD) of the indicated CTLA-4 mAbs for soluble cynomolgus CTLA-4 was determined by a single antigen concentration BLI measurement (Octet). […] Due to constraints on sample size in each Promega bioassay kit, this set of aCTLA-4 mAbs was analyzed using multiple plates (plate letters correspond to Plate A-D in FIG. 20D).
Antibodies were loaded at 5 μg/mL onto Protein A biosensors that were dipped into 80 nM antigen, and kinetic constants were calculated using a monovalent model.

Assay [4] addresses T3, human CTLA-4 expressed on the cell surface (human, UniProt P16410 36-223). Description: cell-based or functional assay.
For assay [5], the target named is T4, CD27 on CHO cells (UniProt P26842 20-260, limits assumed).
T4 construct: whole, on cells; also called CD27+ CHO cells; irrelevant antigen (CD27)
T4 sequence (P26842 20-260 limits assumed): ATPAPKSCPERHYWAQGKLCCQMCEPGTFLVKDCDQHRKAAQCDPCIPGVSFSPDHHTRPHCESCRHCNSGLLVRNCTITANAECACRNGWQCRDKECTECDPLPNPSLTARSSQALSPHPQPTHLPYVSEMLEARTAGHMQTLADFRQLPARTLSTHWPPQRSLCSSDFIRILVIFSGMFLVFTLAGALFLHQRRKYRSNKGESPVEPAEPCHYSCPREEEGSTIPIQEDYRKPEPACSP
The assay can be described thus: flow cytometry, mixed CTLA-4+ and CD27+ CHO cells. How it is done:
To determine if the CTLA-4 mAbs bound the appropriate antigen expressed on the surface of mammalian cells, CHO cell lines stably expressing human CTLA-4 or an irrelevant antigen (CD27) were generated. Cells (0.5×10⁶ each cell line) were combined and washed with MACS buffer (Dulbecco's Phosphate Buffered Saline [DPBS], with 0.5% bovine serum albumin [BSA], and 2 mM ethylenediaminetetraacetic acid [EDTA]). The cells were incubated with 10 μg/mL anti-CTLA-4 for 30 min at 4° C., then excess, unbound mAbs were removed by washing twice with MACS buffer. The cells were then stained with PE-conjugated anti-Human IgG Fc antibody (clone M1310G05, BioLegend 410720, San Diego, Calif., USA) to detect bound anti-CTLA-4 and with fluorescein isothiocyanate (FITC)-conjugated anti-CD27 (clone 0323, BioLegend 302806, San Diego, Calif., USA) to distinguish the cells expressing the irrelevant antigen. Cells were washed twice with MACS buffer, fixed with 4% paraformaldehyde fixation buffer (BioLegend 420801, San Diego, Calif., USA) for 20 minutes at room temperature and washed twice more with MACS buffer. […] Binding of mAbs to CTLA-4 on the cell surface was determined using LSR II (BD Biosciences, San Jose, Calif., USA) or CytoFLEX LX (Beckman Coulter, Brea. Calif., USA) flow cytometers and analyzed using FlowJo (v10.6.1, BD Biosciences, San Jose, Calif., USA).

In assay [6] the target is T1, His-tagged human CTLA-4 (CT4-H5229; …). The assay can be described thus: SPR (Carterra). How it is done: as §1, §2, §3
The source holds these as a separate data set.

The next assay concerns the target mouse CTLA-4 (mouse, UniProt P09793 36-161, limits assumed). Description: BLI (Octet). How it is done: (§5) The binding specificity and affinity of each full-length antibody towards CTLA-4 were determined using biolayer interferometry (BLI) and/or surface plasmon resonance (SPR). Anti-cyno CTLA-4 and anti-mouse CTLA-4 affinities were tested using ForteBio (BLI). Anti-human CTLA-4 affinities were measured using Carterra (SPR).
(§6) For BLI, antibodies were loaded onto an Anti-Human IgG Fc (AHC) biosensor using the Octet Red96 system (ForteBio). Loaded biosensors were dipped into antigen dilutions beginning at 300 nM, with 6 serial dilutions at 1:3. Kinetic analysis was performed using a 1:1 binding model and global fitting.

For assay [7], the target named is T2, His-tagged cynomolgus CTLA-4 …. The assay can be described thus: BLI (Octet). How it is done:
as §5, §6

Assay [8] deals with T3, human CTLA-4 expressed on the cell …. The assay can be described thus: cell-based or functional assay. The source holds these as a separate data set.
In assay [9] the target is T4, CD27 on CHO cells. Description: flow cytometry, 10 µg/mL mAb, geometric MFI. How it is done: as §4
(§7) To determine if the CTLA-4 mAbs bound the appropriate antigen expressed on the surface of mammalian cells, CHO cell lines stably expressing human CTLA-4 or an irrelevant antigen (CD27) were generated. Cells (0.5×10⁶ each cell line) were combined and washed with MACS buffer (Dulbecco's Phosphate Buffered Saline [DPBS], with 0.5% bovine serum albumin [BSA], and 2 mM ethylenediaminetetraacetic acid [EDTA]). The cells were incubated with 10 μg/mL anti-CTLA-4 for 30 min at 4° C., then excess, unbound mAbs were removed by washing twice with MACS buffer. The cells were then stained with PE-conjugated anti-Human IgG Fc antibody (clone M1310G05, BioLegend 410720, San Diego, Calif., USA) to detect bound anti-CTLA-4 and with fluorescein isothiocyanate (FITC)-conjugated anti-CD27 (clone 0323, BioLegend 302806, San Diego, Calif., USA) to distinguish the cells expressing the irrelevant antigen. Cells were washed twice with MACS buffer, fixed with 4% paraformaldehyde fixation buffer (BioLegend 420801, San Diego, Calif., USA) for 20 minutes at room temperature and washed twice more with MACS buffer.

The target of assay [10] is T3, human CTLA-4 expressed on the cell …. Description: flow cytometry, 10 µg/mL mAb, geometric MFI. How it is done: as §4, §7

T3 sequence (P16410 36-223 limits assumed): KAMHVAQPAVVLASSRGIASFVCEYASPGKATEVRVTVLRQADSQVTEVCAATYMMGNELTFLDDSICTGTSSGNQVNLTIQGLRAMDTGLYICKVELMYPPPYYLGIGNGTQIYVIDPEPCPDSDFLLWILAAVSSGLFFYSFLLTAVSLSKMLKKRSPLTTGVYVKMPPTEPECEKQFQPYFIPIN
T1 sequence (P16410 36-161 limits assumed): as the sequence (G7PL88 entry or part of it limits assumed, form in doubt) above, with N14S, T18I, M106L counted along it
mouse CTLA-4, sequence (P09793 36-161 limits assumed): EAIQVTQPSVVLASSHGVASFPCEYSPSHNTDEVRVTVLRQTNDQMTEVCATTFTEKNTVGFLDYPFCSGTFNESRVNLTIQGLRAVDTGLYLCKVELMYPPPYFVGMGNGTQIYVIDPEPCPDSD

B1: antibody A6 (L6H6) (antibody, V domains shown)
VH: QVQLVESGGGVVQPGRSLRLSCAASGFTFSSYGMHWVRQAPGKGLEWVAVIWYDGSYKYYADSVKGRFTISRDDSKNTLYLQMSSLRAEDTAVYYCARAPHYAILTGYYEDYWGQGTLVTVSS
VL: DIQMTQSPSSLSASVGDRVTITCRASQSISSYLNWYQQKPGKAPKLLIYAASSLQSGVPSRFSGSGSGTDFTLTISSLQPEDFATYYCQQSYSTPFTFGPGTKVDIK
For B1, the Kd is 5.7 nM in [1]; 5.7 nM in [2]; 1.6 nM in assay [3]; 5.7 nM in assay [6]; 87.8 nM in the assay with mouse CTLA-4; 1.6 nM in [7]. For the same molecule, the koff in [1] and in assay [2] was 0.00035 s⁻¹ each time. Besides, the on-rate (kon) in assay [1] and in [2] was 61000 M⁻¹ s⁻¹ throughout. The “Promega assay % inhibition” value in [4] was 61.7%. The “Promega assay antagonist (EC50, ug/mL)” value in assay [4] stood at 0.18 µg/mL. Moreover, the binding result with CD27 on CHO cells [5] is given as “no binding (tested: 10 µg/mL)”. Besides, in assay [8], the “Cell-based blocking activity EC50” value was determined as 0.18 µg/mL. Also, the “Cell-based blocking activity max signal (RLU)” value in assay [8] was 338 RLU. Moreover, the “MFI of CD27+ CHO cells” value with CD27 on CHO cells [9] amounted to 17.8. Moreover, the “MFI of CTLA-4+ CHO cells” value in [10] was determined as 939.

B2: antibody A4 (L4H4) (antibody, V domains shown)
VH: QVQLVESGGGVVQPGRSLRISCAASGFTFSSYGIHWVRQAPGKGLQWVAVIWYDGRNKYYADSVKGRFTISRDNSKNTLYLQMNSLRAEDTAVYYCSRSGSFGAFDIWGQGTMVTVSS
VL: EIVLTQSPGTLSLSPGDRATLSCRASQSGSSSYLAWYQQKPGQAPRLLIYGASSRATGIPDRFSGSGSGTDFTLTISRLEPEDFAVYYCQQYGTSPFTSGPGTKVDIK
notes: also called aCTLA-4.29
Turning to B2, the Kd in [1] came to 3 nM; in assay [2], 3 nM; in [3], 1.2 nM; in assay [6], 3 nM; in [7] it was 1.2 nM. Also, the dissociation rate constant (koff) in [1] and in assay [2] was 0.00023 s⁻¹ throughout. Further, the on-rate constant (kon) in assay [1] and in assay [2] was 76000 M⁻¹ s⁻¹ in each case. For the same molecule, the “Promega assay % inhibition” value in assay [4] stood at 81%. Further, in assay [4], the “Promega assay antagonist (EC50, ug/mL)” value came out at 0.15 µg/mL. The binding result in the assay with CD27 on CHO cells [5] is reported as “no binding (tested: 10 µg/mL)”; with mouse CTLA-4, “no binding (tested: 300 nM)”. Also, the “Cell-based blocking activity EC50” value in assay [8] worked out at 0.15 µg/mL. Further, in [8], the “Cell-based blocking activity max signal (RLU)” value came out at 444 RLU. Moreover, the “MFI of CD27+ CHO cells” value with CD27 on CHO cells [9] amounted to 16.3. Moreover, in [10], the “MFI of CTLA-4+ CHO cells” value amounted to 999.

B3: antibody A13 (L13H13) (antibody, V domains shown)
VH: QVQLVESGGGVVQPGRSLRLSCAASGFTFSSYGMHWVRQAPGKGLEWVAVIWYDGRNKDYADSVKGRITISRDNSKNTLYLQMNSLRAEDTAVYYCARGGLLGPYFDYWGQGTLVTVSS
VL: not shown
notes: also called aCTLA-4.14
For the molecule B3, in [1], the Kd was determined as 3.2 nM, the dissociation rate constant (koff) stood at 0.00042 s⁻¹ and the on-rate (kon) was 130000 M⁻¹ s⁻¹. For the same molecule, in [2], binding was put at a Kd of 3.2 nM, the koff is 0.00042 s⁻¹ and the kon was determined as 130000 M⁻¹ s⁻¹. Besides, the Kd in assay [3] was found to be 9.6 nM. In addition, in assay [4], the “Promega assay % inhibition” value came out at 13.3% and the “Promega assay antagonist (EC50, ug/mL)” value worked out at 0.09 µg/mL. For the same molecule, the binding result in the assay with CD27 on CHO cells [5] is listed as “no binding (tested: 10 µg/mL)”. This molecule returned a Kd in assay [6] of 3.2 nM. The molecule further yielded a Kd in assay [7] of 9.6 nM. In assay [8], the “Cell-based blocking activity EC50” value was found to be 0.09 µg/mL and the “Cell-based blocking activity max signal (RLU)” value was found to be 73 RLU. For the same molecule, the “MFI of CD27+ CHO cells” value with CD27 on CHO cells [9] was 17. The “MFI of CTLA-4+ CHO cells” value in assay [10] was determined as 1024.

B4: antibody A11 (L11H11) (antibody, V domains shown)
VH: QVQLVESGGGVVQPGRSLRLSCAASGFTFSSYGMHWVRQAPGKGLEWVAVIWYDVGNKYYIDSVKGRFTISRDNSKNTLYLQMNSLRAEDTAVYYCARDYYGSGSPRHFDYWGQGTLVTVSS
VL: DIQLTQSPSFLSASVGDRVTITCRASQGISSYLAWYQQKPGKAPKLLIYAASTLQSGVPSRFSGSGSGTEFTLTISSLQPEDFATYYCQQLNSYPPTFGQGTKVEIK
notes: also called aCTLA-4.31
As to B4, in assay [2], the Kd was determined as 7.5 nM, the koff is 0.00035 s⁻¹ and the on-rate constant (kon) stood at 47000 M⁻¹ s⁻¹. For the same molecule, in assay [4], the “Promega assay % inhibition” value came out at 26.6% and the “Promega assay antagonist (EC50, ug/mL)” value worked out at 0.42 µg/mL. Also, the dissociation constant (Kd) in assay [6] amounted to 7.5 nM. In addition, the binding result with mouse CTLA-4 was “no binding (tested: 300 nM)”. Further, in assay [7], the affinity, expressed as Kd, was 1.6 nM.

For the origin of these results see patent US20230265192A1 (GIGAGEN, published 2023).
